No end group written: not given here.

One experiment concerns the target T1, Thrombin (Homo sapiens, UniProt P00734).
T1 construct: purchased R&D Systems (Bio-techne) 2196-SE-200
The experiment can be described thus: 30-mer library counter-screening MSP-MS, Thrombin. Type of experiment: biochemical. Here is the method: (§1) Protease specificity screening was performed using Multiplexed Substrate Profiling by Mass Spectrometry (MSP-MS), the method described in, e.g. O'Donoghue A. J. et al., Nat Methods., 2012; 9(11): 1095-1100. This method employs a physico-chemically diverse peptide library as substrates for proteases, and reactions are monitored over time with mass spectrometric detection of cleaved products. The resulting cleavages are assessed for specific cleavage in the enzyme-treated sample by comparison with results from a no-enzyme control incubation.
(§2) Enzymes were activated and assayed following the manufacturer's recommendations.
Thrombin was activated following the manufacturer's recommended conditions by pre-incubation with the enzyme with thermolysin for 15 min, and then the thermolysin was quenched with 1,10 phenanthroline treatment. Activated thrombin was assayed at 1.2 nM in activation buffer: 50 mM TRIS HCl, 10 mM CaCl2, 150 mM NaCl, 0.05% (w/v) Brij-35, pH 7.5.
(§3) Counter-screening was performed against the enzymes Thrombin, Factor Xa and Hepsin using this library as well, and for calibration of activity, a positive-control peptide bearing favorable motifs for these enzymes was also designed (ALU30-19).
(§4) Catalytic efficiency (kcat/KM) estimations were used to rank the top cleaved substrates in the MSP-MS reaction. Peptides were quantified by mass spectrometric label-free quantitation from the MS1 precursor ion peak areas for each peptide. Enzyme progress curves were modeled from six-time point measurements in GraphPad Prism. Data were fitted using non-linear least squares fitting to the first order kinetics equation:
(§5) [formula] where Y=percent product formation or substrate consumption, and t=time. The observed rate is a function of the enzyme concentration [E0], and an observed catalytic efficiency (kcat/KM) in units M^−1s^−1
(§6) Counter-screening with Thrombin, Factor Xa and Hepsin was also performed following the same analysis. The library peptide Alu30-19 was designed to include authentic sites for each enzyme, for comparison of overall cleavage efficiency as well as cleavage site specificity within each motif. The substrate designed for Factor Xa has the motif FNPR|TFGS (SEQ ID NO: 248), derived from the Factor Xa cleavage site in Thrombin. The substrate motif for Thrombin was FPR|, a common tool substrate motif. The substrate motif for hepsin was RKRR|GSRG (SEQ ID NO: 249) from filaggrin.

Another experiment has as its target T2, Hepsin (Homo sapiens, UniProt P05981).
T2 construct: purchased R&D Systems (Bio-techne) 4776-SE
The experiment in a line: 30-mer library counter-screening MSP-MS, Hepsin. In kind it is biochemical. As to conditions: for Apparent catalytic efficiency, hepsin: order of magnitude. Here is the method: as §1, §2
Hepsin was pre-activated overnight at 37° C. in the manufacturer recommended buffer: 100 mM TRIS, 10 mM CaCl2, 150 mM NaCl, 0.05% Brij-35, pH 8.0. Activity was measured with 2.4 or 24 nM enzyme in the buffer: 50 mM TRIS HCl at pH 7.4.
as §3, §4, §5, §6
(In general: The purpose of a counterscreen is to sort out artefacts and off-target activity.)

A further experiment addresses T3, FAPα (Homo sapiens, UniProt Q12884).
T3 construct: purchased R&D Systems (Bio-techne) 930-ADB-010
T3 sequence (Q12884 1-760): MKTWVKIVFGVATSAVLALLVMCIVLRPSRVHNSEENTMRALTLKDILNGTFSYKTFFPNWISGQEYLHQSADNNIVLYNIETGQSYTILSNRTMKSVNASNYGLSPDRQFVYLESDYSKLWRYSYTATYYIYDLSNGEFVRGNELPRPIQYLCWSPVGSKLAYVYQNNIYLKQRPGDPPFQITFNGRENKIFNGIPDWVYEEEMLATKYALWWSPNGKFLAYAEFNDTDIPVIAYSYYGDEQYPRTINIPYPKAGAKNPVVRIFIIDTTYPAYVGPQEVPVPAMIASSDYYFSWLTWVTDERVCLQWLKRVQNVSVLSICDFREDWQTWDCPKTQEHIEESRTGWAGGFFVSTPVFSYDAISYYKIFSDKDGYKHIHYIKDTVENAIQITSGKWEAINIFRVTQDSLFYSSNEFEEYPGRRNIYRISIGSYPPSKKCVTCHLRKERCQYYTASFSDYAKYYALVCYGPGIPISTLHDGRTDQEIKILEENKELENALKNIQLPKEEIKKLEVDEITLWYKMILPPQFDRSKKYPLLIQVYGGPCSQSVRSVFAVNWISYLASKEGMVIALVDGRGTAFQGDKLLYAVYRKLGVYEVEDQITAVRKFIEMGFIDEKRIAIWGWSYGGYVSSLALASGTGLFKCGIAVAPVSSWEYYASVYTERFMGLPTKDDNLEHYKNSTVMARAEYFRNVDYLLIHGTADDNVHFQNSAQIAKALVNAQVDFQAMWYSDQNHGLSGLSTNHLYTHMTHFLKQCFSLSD
The experiment in a line: 30-mer tandem linker library MSP-MS, FAPα. In kind it is biochemical. Here is the method:
as §1, §2
FAPα activity was tested with fluorescence detection using a generic Z-GP-AMC substrate. For FRET assays, the final enzyme concentration was 5 nM and the buffer was 50 mM TRIS HCl, 1 M NaCl, 1 mg/mL BSA, pH 7.5.
To analyze the catalytic efficiency of candidate tandem linker designs, a tailored library approach using MSP-MS was applied. For the tailored library, a set of nineteen synthetic peptides, 30 amino acids in length (30-mers), were designed to test whether sequence context affects the efficiency of cleavage. Peptides were assayed in a multiplex format together as a substrate library with individual recombinant enzymes, using MSP-MS. For quantitative comparisons, kinetic analysis was performed over a time course, and results are reported either as a catalytic efficiency kcat/KM for well-behaved first-order kinetics, or as observed rates as kobs for more complex kinetic behavior.
as §4, §5

Experiment [1] relates to conditioned media from tumor, myofibroblast and YAMC cell lines. The experiment in a line: FRET steady-state kinetics of conditioned media (enzyme equivalents). Type of experiment: biochemical, mouse. The note with it: for Secreted activity in conditioned media, steady-state kinetics: tumor cell lines. From the text:
(§7) Conditioned media and cell lysate samples were received from Charles River Laboratories for the murine colon cancer cell lines: MC38 (epithelial), CT26 (fibroblast), and CT26 transduced with a lentivirus for doxycyclin-inducible expression of MMP9 (CT26 pLVX MMP9-5T4+dox). An immortalized mouse intestinal myofibroblast cell line (ABM Good #T0565) was used as a control stromal cell line, grown under manufacturer recommended conditions. Conditioned media and cell lysate samples were also received for screening purposes from ABM Good for the immortalized mouse colonic epithelial cell line YAMC (ABM Good #T0567).
(§8) In the end-point screening assays, a fixed titer of 10× concentrated sample and a substrate concentration of 10 μM was used. Values reported in the end-point experiments are initial velocity measurements, in relative fluorescence units (RFU) per second. End-point measurements are a starting point for a screen, but the rate of the reaction is non-linearly related to substrate concentration. Therefore, a more accurate representation of activity would be given by steady-state kinetic measurements covering a range of substrate concentrations. To compare activity across cell lines, the data were treated with a Michaelis-Menten model, and the concentration of equivalent enzyme units [E0] was solved.
Accordingly, initial velocity was measured as a function of substrate concentration, using a 2-fold dilution series from 250 to 1 μM. Data were fitted using non-linear least squares fitting with GraphPad Prism software v 8.0 to the Michaelis-Menten equation:
[formula] where kcat is the rate of product formation under steady-state conditions in units (s^−1), and KM is the Michaelis constant that gives the substrate concentration in molar units (M) at which half maximum velocity of the reaction is produced for a given enzyme, [E0] is the enzyme concentration, and [S] the substrate concentration in (M).
In the assays where purified recombinant enzyme is used, the Michaelis-Menten parameters are as classically defined above. For conditioned media samples, the effective titer of conditioned media per assay was adjusted to approximately a 2× concentrate of the original unprocessed media samples to assure that the detection range matched the signal produced. The enzyme component in the calculation is redefined as a mixture of possible proteases that contribute to the cumulative observed activity, each with intrinsic reactivity toward a substrate. In this case, it is more appropriate to consider kcat and KM as macroscopic constants that represent the overall efficiency of catalysis, and E0 is an enzyme equivalent, expressed in units of concentration. To solve the data fit, kcat/KM can be fixed at that of the recombinant enzyme and enzyme equivalents per cell culture volume can be output. The effective titer of enzyme equivalents in this case can be used to compare the activity produced by the different cell lines.
An immortalized mouse colonic epithelial cell line (YAMC) was used to test activity in the presence of additional control “normal” epithelial cells. YAMC's are given the calculated enzyme equivalents (nM) resulting from all of these steady state experiments, to allow for comparison of the amount of equivalent activity per sample. For example, the YAMC control epithelial cell line produced activity with the ADAM17_2 substrate equivalent to that of 0.52±0.03 nM of ADAM17 recombinant enzyme. This cell line compares directly to MC38, also of epithelial origin, which had activity equivalent to that of 0.32±0.03 nM of ADAM17 recombinant enzyme. […] This cell line required non-standard cell culture conditions, including growth with murine IFNγ, and at low temperature to maintain, and may not be fully representative of epithelial cell lines.

For experiment [2], the system named is conditioned media from MC38, CT26, CT26 pLVX MMP9-5T4+dox and myofibroblast cell lines. The experiment can be described thus: FRET end-point screen of conditioned media. Type of experiment: biochemical, mouse. As to conditions: for Ratio of tumor vs control activity, end-point screen: three tumor cell lines vs myofibroblast cell line, complete (+FBS) media, 10 μM substrate.
Description: Proteolytic activity was screened in the conditioned media samples by fluorescent resonance energy transfer (FRET) assays with the substrates listed in Table 10.
as §7
Conditioned media samples were prepared according to the standard protocol using logarithmic phase cells. Briefly, cells were grown for 16h in either serum-free media or in complete media containing 10% fetal bovine serum (FBS). After conditioned media collection, the adherent cells were washed then lysed on plate with non-denaturing lysis buffer to produce a lysed “cell pellet” to capture any activity that remained associated with the cells. All cell culture-derived conditioned media samples, cell lysates from Charles River Laboratories, and cell lysates derived internally were processed with identical methods, to allow comparison between samples.
The resulting conditioned media was buffer exchanged with PBS and concentrated to 10× the original titer as a stock solution.
FBS background controls were therefore used for baseline subtraction at each concentration of substrate throughout the FRET experiments.
as §8

T2 sequence (P05981 163-417 limits assumed): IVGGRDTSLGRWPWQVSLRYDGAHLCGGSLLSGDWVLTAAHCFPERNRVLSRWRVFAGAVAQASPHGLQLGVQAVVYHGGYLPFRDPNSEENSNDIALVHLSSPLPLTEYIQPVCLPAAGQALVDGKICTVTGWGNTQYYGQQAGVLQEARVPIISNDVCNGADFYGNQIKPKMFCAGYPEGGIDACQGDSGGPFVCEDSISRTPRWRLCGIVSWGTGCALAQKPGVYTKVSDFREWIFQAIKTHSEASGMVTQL
T2 sequence (P05981 1-162 partner limits assumed): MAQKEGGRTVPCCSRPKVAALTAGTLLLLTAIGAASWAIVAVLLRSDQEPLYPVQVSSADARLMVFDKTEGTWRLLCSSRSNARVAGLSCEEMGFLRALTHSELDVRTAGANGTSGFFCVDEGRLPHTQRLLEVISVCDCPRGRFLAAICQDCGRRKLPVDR

For the sequence “GALFKSSFPSGGGPAGLYAQGGSGKGGSGK [Alu30-1]”, in the experiment with Thrombin, the “Relative efficiency of 30-mer peptide cleavage by thrombin” value (“Relative efficiency … by thrombin” for short) was “most rapidly cleaved in the library”.
Still for that read-out and setting: for “GGALFKSSFPGPAGLYAQPLAQKLKSSGGK [Alu30-13]” the value was “cleaved at lower efficiency”.
Regarding “GGGALFKSSFPLAQKLKSSPGGPAGIGGGR [Alu30-8]”, the “Apparent catalytic efficiency, hepsin” value in the experiment with Hepsin is given as ~10^5 M^−1s^−1. In the experiment with FAPα, the “Relative efficiency of 30-mer peptide degradation by FAPα” value (“Relative efficiency … by FAPα” below) was “not cleaved”.
Regarding “GGPLAQKLKSSALFKSSFPGPAGLYAQGGR [Alu30-12]”, the “Apparent catalytic efficiency, hepsin” value with Hepsin is ~10^5 M^−1s^−1. For the same sequence, the “Relative efficiency … by thrombin” value with Thrombin is “cleaved at lower efficiency”.
“GPAGLYAQ (also: Mca fluorophore and Dnp quencher, places not given here) [MMP14_1, FRET substrate with Mca fluorophore and Dnp quencher]”: in experiment [1], the “Secreted activity in myofibroblast conditioned media, steady-state kinetics” value is “not in the myofibroblast cell line” and the “Secreted activity in conditioned media, steady-state kinetics” value was “significant measurable activity”. Also, the “Cleavage of motif by FAPα” value in the experiment with FAPα (at PGGP|AGIG and GP|AGLYAQ respectively) is recorded as “able to cleave”. The “Substrate cleavage activity in the end-point screen” value in experiment [2] (conditioned media) is reported as “high activity”. Further, the “Substrate cleavage activity, control myofibroblast cell line” value in experiment [2] (end-point screen, conditioned media) is given as “lowest activity”. Moreover, in experiment [2], the “Ratio of tumor vs control activity, end-point screen” value (“Ratio of tumor vs control activity” below) is listed as “approximately 57 fold”.
On to “GPAGMKGL (also: Mca fluorophore and Dnp quencher, places not given here) [MMP9_1, FRET substrate with Mca fluorophore and Dnp quencher]”, for which the “Secreted activity in conditioned media, steady-state kinetics” value in experiment [1] is “Secreted activity was measured”. In addition, the “Substrate cleavage activity in the end-point screen” value in experiment [2] (conditioned media) was “high activity”. The “Ratio of tumor vs control activity” value in experiment [2] is on record as “approximately 4 fold”.
Consider “KGGGPAGLYAQGPAGLYAQGPAGLYAQGSR [Alu30-3]”, for which the “Relative efficiency … by FAPα” value with FAPα is listed as “highest cleavage activity”. Besides, the “Relative efficiency … by thrombin” value with Thrombin is “most rapidly cleaved in the library”.
For the sequence “KSGPGGPAGIGALFFSSPPLAQKLKSSGGR [Alu30-18]”, the “Relative efficiency … by thrombin” value with Thrombin was “lower cleavage activity”.
Regarding “LAQKLKSS (also: Mca fluorophore and Dnp quencher, places not given here) [ADAM17_2, FRET substrate with Mca fluorophore and Dnp quencher]”, the “Calculated enzyme equivalents (ADAM17 recombinant enzyme)” value in experiment [1] (MC38) is 0.32 ± 0.03 nM; in experiment [1] (YAMC control epithelial cell line), 0.52 ± 0.03 nM. Besides, the “Secreted activity in myofibroblast conditioned media, steady-state kinetics” value in experiment [1] was “essentially undetectable”. Also, the “Ratio of tumor vs control activity” value in experiment [2] is reported as “approximately 3 fold”.
“LAQRLRSS (also: Mca fluorophore and Dnp quencher, places not given here) [ADAM17_1, FRET substrate with Mca fluorophore and Dnp quencher]”: the “Relative efficiency of cleavage by hepsin” value with Hepsin is given as “less efficiently cleaved than ADAM17_ 2”.
Take “RGGALFKSSFPLAQKLKSSGPAGLYAQGGK [Alu30-14]”: the “Apparent catalytic efficiency, hepsin” value with Hepsin is ~10^5 M^−1s^−1.
Take “RGGPAGLYAQGGPAGLYAQGGGPAGLYAQK [Alu30-4]”: the “Relative efficiency … by FAPα” value with FAPα was “highest cleavage activity”. For the same sequence, the “Relative efficiency … by thrombin” value with Thrombin is reported as “efficient substrate”.
On to “RGPGGPAGIGPLAQKLKSSALFKSSFPGGG [Alu30-9]”, for which the “Apparent catalytic efficiency, hepsin” value in the experiment with Hepsin is listed as ~10^5 M^−1s^−1.
In the case of “RGPLAQKLKSSALFKSSFPGGPAGIGGGGK [Alu30-7]”, the “Relative efficiency … by FAPα” value with FAPα was “not cleaved”.

The record behind these values is patent publication US11739132B2, “Separation moieties and methods of use thereof” (Werewolf Therapeutics, Inc., priority 2019, dated 2023).
